Measured values: patent publication US8158585B2, “Cross-β structure comprising amyloid-binding proteins and methods for detection of the cross-β structure, for modulating cross-β structures fiber formation and modulating cross-β structure-mediated toxicity” (CrossBeta Biosciences B.V., priority 2002, dated 2012)

Columns and labels:
mΔIAPP [1] = biological target: T1, mΔIAPP (Mus musculus, UniProt P12968); assay: Dot blot: binding of FXII to mΔIAPP; details: 2 nM FXII
T1 construct: purchased Pepscan, Inc. or peptide synthesis facility of the Netherlands Cancer Institute; host or cells: chemical synthesis
Description: (§1) The binding of human FXII (Calbiochem, La Jolla, Calif., USA, catalogue #233490) to amyloid (poly)peptides was tested. Prototype amyloid peptides human amyloid-β (1-40) (hAβ (1-40)) and human fibrin fragment α147-159 FP13, and glucose-6-phosphate glycated bovine albumin (albumin-advanced glycation end product (AGE)) and glucose-6-phosphate glycated human hemoglobin (Hb-AGE), all containing cross-β structure, as well as negative controls mouse A islet amyloid polypeptide (ΔmIAPP), albumin-control and Hb-control, all three lacking the amyloid-specific structure, were coated to ELISA plates and overlayed with a concentration series of human factor XII. Binding of FXII was detected using a rabbit polyclonal anti-FXII antibody (Calbiochem, La Jolla, Calif., USA, catalogue #233504) and peroxidase-labeled swine anti-rabbit IgG. Wells were coated in triplicate. The FXII binding buffer included 10 mM HEPES pH 7.3, 137 mM NaCl, 11 mM D-glucose, 4 mM KCl, 1 mg ml^−1 albumin, 50 μM ZnCl2, 0.02% (m/v) NaN3 and 10 mM ε-amino caproic acid (εACA). Lysine analogue εACA was added to avoid putative binding of FXII to cross-β structure via the FXII kringle domain. In addition, binding of FXII to hAβ (1-40) and the prototype amyloid human amylin fragment hΔIAPP was tested using dot blot analysis. […]

hAβ (1-40) = biological target: T2, hAβ (1-40) (Homo sapiens, UniProt P05067); assay: Dot blot: binding of FXII to hAβ (1-40); details: 2 nM FXII
T2 construct: Peptide Aβ (1-40), containing amino acids as present in the described human Alzheimer peptide; purchased Pepscan, Inc. or peptide synthesis facility of the Netherlands Cancer Institute; host or cells: chemical synthesis
T2 sequence (P05067 672-711): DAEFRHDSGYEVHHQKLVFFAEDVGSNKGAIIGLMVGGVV
Description: as §1

[2] = biological target: T3, human amylin fragment hΔIAPP (Homo sapiens, UniProt P10997); assay: Dot blot: binding of FXII to hΔIAPP; details: 2 nM FXII
T3 construct: purchased Pepscan, Inc. or peptide synthesis facility of the Netherlands Cancer Institute; host or cells: chemical synthesis
Description: as §1

[3] = test system: ΔmIAPP, albumin-control and Hb-control; assay: ELISA: binding of human FXII to negative controls
Description: as §1

[4] = biological target: T4, tPA-mediated plasminogen activation (Homo sapiens, UniProt P00750); assay: Plasminogen activation assay; format: biochemical; details: plasminogen 200 μg ml−1, tPA 200 pM, 5 μM co-factor; S-2251
T4 construct: purchased Boehringer-Ingelheim (Germany)
T4 sequence (P00750 36-562): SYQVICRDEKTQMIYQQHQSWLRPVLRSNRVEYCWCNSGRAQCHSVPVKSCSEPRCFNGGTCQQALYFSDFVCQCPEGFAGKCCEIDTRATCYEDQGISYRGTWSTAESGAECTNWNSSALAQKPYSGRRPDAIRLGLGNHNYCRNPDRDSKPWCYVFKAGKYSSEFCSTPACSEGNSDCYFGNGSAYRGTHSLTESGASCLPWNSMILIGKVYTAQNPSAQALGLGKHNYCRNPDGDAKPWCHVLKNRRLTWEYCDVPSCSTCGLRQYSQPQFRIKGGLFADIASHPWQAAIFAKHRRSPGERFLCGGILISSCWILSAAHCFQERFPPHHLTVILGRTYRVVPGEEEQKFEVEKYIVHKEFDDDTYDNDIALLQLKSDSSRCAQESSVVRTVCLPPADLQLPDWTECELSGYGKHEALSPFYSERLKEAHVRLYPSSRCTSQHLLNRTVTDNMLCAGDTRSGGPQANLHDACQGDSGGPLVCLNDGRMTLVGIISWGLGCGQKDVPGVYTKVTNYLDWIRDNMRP
Description: Plasminogen (200 μg ml^−1) was incubated with tPA (200 pM) in the presence or the absence of a co-factor (5 μM of either endostatin, Aβ (1-40), or one the fibrin-derived peptides 85, 86 and 87). At the indicated time intervals, samples were taken and the reaction was stopped in a buffer containing 5 mM EDTA and 150 mM εACA. After collection of the samples, a chromogenic plasmin substrate S-2251 was added and plasmin activity was determined kinetically in a spectrophotometer at 37° C.

neuronal cell death = assay: Endostatin-induced cell death by methylene blue staining; format: cell-based; details: precipitated form
Text: FIG. 6 is a set of graphs illustrating that endostatin can form fibers comprising cross-β structure and stimulates plasminogen activation. […] Aβ is shown for comparison. Panel D is an analysis of endostatin-induced cell death by methylene blue staining. […] Direct cell death, but not cell detachment, is protected in the presence of sufficient glucose. Buffer prec. indicates control buffer.

albumin-g6p [5] = biological target: T5, albumin-g6p (Bos taurus, UniProt P02769); assay: ELISA: binding of tPA-F-GST and RPTPμ-GST to glycated albumin; design: species or system bovine; details: in the presence of excess εACA
T5 construct: Bovine serum albumin (BSA) fraction V pH 7.0; host or cells: bovine serum, fraction V
T5 sequence (P02769 25-607): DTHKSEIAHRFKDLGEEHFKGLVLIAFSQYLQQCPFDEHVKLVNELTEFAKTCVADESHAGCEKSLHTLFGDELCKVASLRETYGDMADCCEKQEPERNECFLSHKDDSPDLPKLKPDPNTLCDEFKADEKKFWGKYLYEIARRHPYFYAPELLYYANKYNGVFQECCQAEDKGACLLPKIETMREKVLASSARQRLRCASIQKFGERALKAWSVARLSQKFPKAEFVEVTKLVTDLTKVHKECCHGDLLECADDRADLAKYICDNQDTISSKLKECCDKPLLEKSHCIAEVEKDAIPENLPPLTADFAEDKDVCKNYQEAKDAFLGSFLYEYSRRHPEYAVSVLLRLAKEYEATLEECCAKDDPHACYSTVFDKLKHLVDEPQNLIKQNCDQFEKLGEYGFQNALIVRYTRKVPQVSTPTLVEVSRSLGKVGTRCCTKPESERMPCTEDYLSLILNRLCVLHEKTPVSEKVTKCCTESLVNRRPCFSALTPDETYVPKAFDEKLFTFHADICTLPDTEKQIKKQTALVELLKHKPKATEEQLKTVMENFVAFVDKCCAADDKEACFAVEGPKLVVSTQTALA
Description: (§2) Binding of tPA-F-GST and RPTPμ-GST to fibrous amyloids human Aβ (1-40) and albumin-[…] was assayed with an ELISA. In brief, human Aβ (1-40), albumin-[…], or buffer only, were coated on a peptide I Immobilizer or a protein I Immobilizer, respectively. Wells were incubated with the purified GST-tagged constructs or control medium and binding was detected using primary anti-GST monoclonal antibody 2F3 and RAMPO. The wells were also incubated with […] of tPA in the presence of 10 mM of εACA. Binding of tPA is independent of the lysyl binding site located at the kringle 2 domain. Binding of tPA was measured using primary antibody 374B and RAMPO. Experiments were performed in triplicate and blank readings of non-coated wells were substracted.

mΔIAPP [6] = biological target: T1, mΔIAPP; assay: Amyloid ELISA with tPA F-EGF-GST: non-amyloid control; format: binding
Description: In order to define the affinity of the purified tPA F-EGF-GST recombinant protein, ELISAs were performed with immobilized amyloid (poly)peptides and non-amyloid control ΔmIAPP. Twenty-five μg ml^−1 of Aβ, FP13, IAPP or ΔmIAPP was immobilized on Exiqon peptide immobilizer plates. A concentration series of tPA F-EGF-GST in the presence of excess εACA was added to the wells and binding was assayed using anti-GST antibody Z-5. As a control, GST (Sigma-Aldrich, St. Louis, Mo., USA, catalogue #G-5663) was used at the same concentrations.

[7] = test system: anti-AGE1 binding to amyloid peptides (Aβ (1-40), IAPP); assay: Competitive ELISA: tPA and anti-AGE1 on immobilized Aβ (1-40) and IAPP; details: 250 or 18 nM α-AGE1; 10 mM εACA
Description: (§3) For ELISAs, amyloid compounds were immobilized on Exiqon peptide or protein Immobilizers (Vedbaek, Denmark), as described before. Anti-AGE antibodies and commercially available anti-Aβ (1-42) H-43 (Santa Cruz Biotechnology, Santa Cruz, Calif., USA) were diluted in PBS with 0.1% v/v Tween 20. Rabbit anti-human vitronectin K9234 was a kind gift of Dr. H. de Boer (UMC Utrecht) and was used as a negative control. For ELISAs with mouse polyclonal anti-albumin-AGE/Aβ, control serum with antibody elicited against an unrelated protein was used. Binding of mouse polyclonal anti-albumin-AGE/Aβ was performed using a dilution series of serum in PBS/0.1% Tween 20. For competitive binding assays with IAPP, anti-AGE1 was pre-incubated with varying IAPP concentrations. The IAPP fibers were spun down and the supernatant was applied in triplicate to wells of an ELISA plate coated with Aβ. Competitive binding assays with multiligand cross-β structure binding serine protease tPA were performed in a slightly different way. Coated Aβ and IAPP are overlayed with an anti-AGE1 or anti-Aβ (1-42) H-43 concentration related to the kD, together with a concentration series of tPA. A 10^7-10^4 times molar excess of lysine analogue εACA (10 mM) was present in the binding buffer in order to avoid binding of tPA to lysine residues of Aβ and IAPP, which would be independent of the presence of amyloid structures.

[8] = biological target: T6, H-43 binding to immobilized IAPP (Homo sapiens, UniProt P10997); assay: Competitive ELISA: tPA and H-43 on immobilized IAPP; details: 100 nM H-43, concentration series of tPA
T6 construct: purchased Pepscan, Inc. (The Netherlands) or peptide synthesis facility at the Netherlands Cancer Institute; host or cells: synthetic peptide
T6 sequence (P10997 34-70 limits assumed): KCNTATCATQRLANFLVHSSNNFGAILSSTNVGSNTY
Description: as §3

[9] = biological target: T7, FXII binding to hAβ (1-40) (Homo sapiens, UniProt P05067); assay: Competitive FXII - tPA ELISA on coated hAβ (1-40); details: 2.5 nM FXII; concentration series up to 135 times the kD
T7 construct: Peptide Aβ (1-40), containing amino acids as present in the described human Alzheimer peptide; purchased Calbiochem (FXII); Pepscan or Netherlands Cancer Institute (peptide) 233490 (FXII)
T7 sequence (P05067 672-711): as the sequence (P05067 672-711) above

Aβ (1-40) = Aβ (1-40) (Homo sapiens, UniProt P05067); assay: ELISA: binding of tPA-F-GST and RPTPμ-GST to human Aβ (1-40); design: Peptide Aβ (1-40), containing amino acids as present in the described human Alzheimer peptide; purchased Pepscan, Inc. (The Netherlands) or peptide synthesis facility at the Netherlands Cancer Institute; host or cells: synthetic peptide; details: in the presence of excess εACA
Aβ (1-40), sequence (P05067 672-711): as above
Description: as §2

[10] = biological target: T8, FXII binding to albumin-AGE (Bos taurus, UniProt P02769); assay: Competitive FXII - tPA ELISA on coated albumin-AGE; details: 15 nM FXII; concentration series up to 150 times the kD
T8 construct: bovine serum albumin (fraction V, catalogue #A-7906); purchased Calbiochem (FXII); ICN or Sigma-Aldrich (albumin) 233490 (FXII); A-7906 (Sigma albumin)
T8 sequence (P02769 25-607): as the sequence (P02769 25-607) above

albumin-g6p [11] = biological target: T5, albumin-g6p; assay: Competitive binding of Thioflavin T and tPA to albumin-g6p (fluorescence, absorbance); design: species or system bovine; details: increasing amounts of tPA
Description: A solution of 430 nM albumin-g6p and 19 μM of Thioflavin T was incubated with increasing amounts of tPA, for one hour at room temperature. For blank readings, albumin-g6p was omitted. Samples were prepared in four-fold in 50 mM glycine-NaOH pH 9. Emission measurements were performed as described above.
Albumin-g6p (500 nM) and Thioflavin T (10 μM) were incubated with increasing amounts of tPA, in 50 mM glycine-NaOH pH 9, for one hour at room temperature. Absorbance measurements were performed at the albumin-g6p Thioflavin T absorbance maximum at 420 nm. Samples were prepared in four-fold. For blank readings, albumin-g6p was omitted in the solutions. Absorbance was read in a quartz cuvette on a Pharmacia Biotech Ultrospec 3000 UV/visible spectrophotometer (Cambridge, England).

Aβ = biological target: T9, Aβ (Homo sapiens, UniProt P05067); assay: Solid-phase binding ELISA of tPA, plasminogen and plasmin to coated Aβ; details: 50 mM ε-aminocaproic acid
T9 construct: Peptide Aβ (1-40), containing amino acids as present in the described human Alzheimer peptide; purchased Pepscan, Inc. or peptide synthesis facility of the Netherlands Cancer Institute; host or cells: chemical synthesis
T9 sequence (P05067 672-711): as the sequence (P05067 672-711) above
Description: FIG. 3 is a set of graphs depicting binding of tPA, plasminogen and plasmin to Aβ. Aβ was coated onto plastic 96-well plates. Increasing concentrations of either (A) tPA or (B) plasmin(ogen) were allowed to bind to the immobilized peptide. After extensive washing, tPA and plasmin(ogen) binding was assessed by enzyme-linked immunosorbent assays using anti-tPA and anti-plasminogen antibodies. Binding of (C) tPA and (D) plasmin to Aβ in the presence of 50 mM ε-aminocaproic acid (ε-ACA) was assessed as in A and B.
To test whether tPA, plasminogen and plasmin bind Aβ, solid-phase binding assays were performed. Aβ was coated onto plastic 96-well plates and binding of the peptide to either plasmin(ogen) or to tPA was assessed by overlaying the coated peptide with increasing concentrations of either tPA, plasminogen or plasmin. Binding was assessed using specific antibodies to either plasmin(ogen) or to tPA by performing ELISA. […] However, activated plasminogen (plasmin) does bind to Aβ and does so with a kD of 47 nM. […] To test this, use was made of the lysine analogue ε-aminocaproic acid (εACA) and binding of plasmin and tPA to Aβ was tested in its presence. […] In contrast, εACA has no effect on the tPA-Aβ interaction (FIG. 3, Panel C). Thus, it was concluded that plasmin binds to free lysines that were generated during the incubation period, presumably via its lysine-binding Kringle domain(s). In line with this, the kD of plasminogen Kringle domain binding to free lysines in fibrin is similar to the kD for plasmin binding to Aβ.

Substance: FXII: human FXII (Calbiochem, catalogue #233490)
- binding to spotted mΔIAPP (mΔIAPP [1]): No binding
- binding to spotted hAβ (1-40) (hAβ (1-40)): specifically bound
- binding to spotted hΔIAPP [2]: specifically bound
- binding to negative controls ΔmIAPP, albumin-control and Hb-control [3]: does not bind

Substance: endostatin
- stimulation of tPA-mediated plasmin formation [4]: stimulating activity
- induction of cell death (neuronal cell death): capable of efficiently inducing cell death

Substance: tPA: Alteplase (recombinant tissue-type plasminogen activator, tPA) from Boehringer-Ingelheim
- binding of control tPA to albumin-g6p (albumin-g6p [5]): bound
- binding to non-amyloid mΔIAPP (mΔIAPP [6]): No binding
- inhibition of anti-AGE1 binding to amyloid peptides [7]: inhibited
- inhibition of H-43 binding to immobilized IAPP [8]: effectively diminished
- inhibition of FXII binding to hAβ (1-40) [9]: efficiently inhibits
- binding of control tPA to human Aβ (1-40) (Aβ (1-40)): bound
- inhibition of FXII binding to albumin-AGE [10]: effectively abolished
- competition with binding of Thioflavin T to glycated albumin (albumin-g6p [11]): competed
- binding to Aβ in the presence of εACA (Aβ): no effect
